Measured values from article PMC10254243.

Assays:
[1] = molecular target: 5-enolpyruvylshikimate-3-phosphate synthase (EPSPS) from Agrobacterium sp. strain CP4 (CP4-EPSPS) (Agrobacterium sp. strain CP4) (UniProt Q9R4E4); assay: SEC; Enrich SEC 650 column on FPLC, PBS pH 7.2, 25 °C, 0.5 mL/min, calibrated with Gel Filtration Standard; after Ni-NTA affinity chromatography
[2] = molecular target: 5-enolpyruvylshikimate-3-phosphate synthase (EPSPS) from Agrobacterium sp. strain CP4 (CP4-EPSPS) (Agrobacterium sp. strain CP4) (UniProt Q9R4E4); assay: native gel or EMSA; native-PAGE of the purified CP4-EPSPS protein (10 μg)

5-enolpyruvylshikimate-3-phosphate synthase (EPSPS) from Agrobacterium sp. strain CP4 (CP4-EPSPS) (from UniProt Q9R4E4 1-455) (enzyme)
stoichiometry N [1]: 2 | stoichiometry N [2]: 2
